Reference: article PMC6742747, “A Unique Homo-Hexameric Structure of 2-Aminomuconate Deaminase in the Bacterium Pseudomonas species AP–3” (Frontiers in Microbiology, 2019)
Substitutions are numbered along the chain they refer to. Names may count otherwise.

B1: AmnEΔ49–59 (enzyme, Pseudomonas sp. AP-3, UniProt Q9KWS2 1-142, looked up)
chain: MVSKADNSAKLVEGKAKPMGSFPHVKRAGDFLFVSGTSSRRPDNTFVGNIELQTREVISNIRDILQSVGADLGDVVEVCSYLVNMNDFAAYNKVYAEFFDATGPARTTVAVHQLPHPQLVIEIKVVAYKPL
notes: 2-aminomuconate deaminase AmnE, Pseudomonas sp; AP-3, as m1 with residues Ala49-Pro59 of loop Lp2 deleted; The purification, including tag cleavage, is described once for the wild type and the mutants together; Trimer by SEC; also called AmnEΔLp2 (residues Ala49–Pro59); truncated mutant AmnEΔ49–59; source: E. coli BL21 (DE3) pLysS, purified (Ni-NTA, Resource Q, Superdex 75); not shown: His6, …
B2: 2-aminomuconate deaminase (AmnE) from Pseudomonas sp. AP-3, wild type (enzyme, UniProt Q9KWS2 1-142, looked up)
chain: MVSKADNSAKLVEGKAKPMGSFPHVKRAGDFLFVSGTSSRRPDNTFVGAEPDDTGRPRPNIELQTREVISNIRDILQSVGADLGDVVEVCSYLVNMNDFAAYNKVYAEFFDATGPARTTVAVHQLPHPQLVIEIKVVAYKPL
notes: 2-aminomuconate deaminase AmnE, Pseudomonas sp; AP-3; protomer of 142 residues; Hexamer made of two trimers, by crystal structure, SEC and cross-linking; the database entry may name the gene amnD; After thrombin cleavage a few vector residues may remain at the N-terminus (surmised); also called wild-type AmnE; source: E. coli BL21 (DE3) pLysS, purified (Ni-NTA, Resource Q, Superdex 75); not …
B3: AmnE P126A (enzyme, Pseudomonas sp. AP-3, UniProt Q9KWS2 1-142, looked up)
chain: B2 chain with P126A
notes: 2-aminomuconate deaminase AmnE, Pseudomonas sp; AP-3, as m1 with P126A; The purification, including tag cleavage, is described once for the wild type and the mutants together; Hexamer by SEC; also called mutant AmnE P126A; source: E. coli BL21 (DE3) pLysS, purified (Ni-NTA, Resource Q, Superdex 75); not shown: His6, N-terminal, cleaved
B4: AmnE R56A (enzyme, Pseudomonas sp. AP-3, UniProt Q9KWS2 1-142, looked up)
chain: B2 chain with R56A
notes: 2-aminomuconate deaminase AmnE, Pseudomonas sp; AP-3, as m1 with R56A; The purification, including tag cleavage, is described once for the wild type and the mutants together; Trimer by SEC; also called single mutant of AmnE R56A; source: E. coli BL21 (DE3) pLysS, purified (Ni-NTA, Resource Q, Superdex 75); not shown: His6, N-terminal, cleaved

Target: the molecule itself
Assay: SEC; analytic Superdex 200 10/300 GL; 1 mg/ml; 50 mM HEPES, 150 mM NaCl, 1 mM DTT, 1 mM EDTA, 5% glycerol, pH 8.0; 0.3 ml/min, 16°C; mass calculated from the elution volume

Point of comparison: B1, “stoichiometry N” value 3. Against it:
- B2 — higher, 6
- B3 — higher, 6
- B4 — the same, 3
